B1: CCND1 (parent)
chain: PEAEENKQIIRKHAQTFVALCATD

Variants of: B1
Experiment: protein stability index of a GFP-peptide fusion (GPS, HEK-293T) (PSI 1-6); higher = more stable
Details: c terminus: a fixed tail appended
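Also: lentivirally expressed fusions sorted by FACS into six bins by GFP to DsRed ratio, PSI derived from sequencing read proportions per bin multiplied by bin number.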

Protein stability index of substitutions, site by site:
Q8: H 3.22, I 2.19, S 2.58, N 3.13, M 2.85, L 2.45, G 2.85, K 2.33
I9: S 2.46, M 3.53, Y 2.71, P 3, G 3.27, K 2.45, C 2.48, A 3.74, L 3.36
C21: Q 4.95, R 4.86, W 3.59, F 3.75, A 4.05, S 4.07, G 5.04
D24: N 3.88, M 2.93, Y 2.89, H 2.77, T 3.35
R11: T 3.47, A 3.58, Y 2.88, C 2.94, L 3.25, H 3.33, F 2.64, I 2.84, S 2.62, D 4.11, V 3.14
A14: S 2.96, N 3.77, T 2.33, G 3.71, M 2.97, V 2.3, W 1.94, L 2.18, E 3.45, Q 2.28, D 3.71
E4: W 1.95, H 2.67, K 2.04, A 2.47, S 2.21, Q 2.39
F17: G 5.43, N 5.41, R 4.54, T 5.23, L 4.47, M 5.03, P 5.15
N6: W 2.42, P 2.12, E 2.92, R 2.22, H 3.04, A 2.14, Q 2.59, D 2.79, Y 3.05, F 2.17
V18: T 3.96, D 5.34, S 4.49, C 3.72, P 5.04, I 4.42, W 3.76
E2: H 2.34, M 2.98, K 2.73, T 2.29, L 2.08, Y 2.69, S 2.4, Q 2.53
L20: G 4.71, Y 2.66, A 3.3, M 2.11, T 4.04, R 2.09, K 2.59
T23: Y 2.47, V 2.87, F 1.75, R 2.48
Q15: A 3.45, T 3.18, L 2.49, H 2.97, G 3.11, I 2.33, C 2.84
A19: D 2.6, H 3.32, T 4.06, N 2.92, R 3.96
H13: F 2.55, L 2.81, R 2.9, I 1.87
P1: Y 3.2, A 3.14, T 2.18, L 2.76, D 3.29, S 2.34, Q 2.78
A22: I 2.95, C 2.15, K 3.66, F 2.63, H 3.38, W 2.09, N 4.43, M 2.67, L 2.72
K7: V 2.54, W 2.61, A 3.37, Q 2.98, M 3.17, R 3.25, S 2.53, D 3.69
T16: G 3.88, C 3.55, F 3.37, W 2.85, Q 4.13, L 3.51
A3: S 2.46, L 2.89, W 2.85, H 2.02
E5: C 1.86, L 1.91, Q 2.33, N 2.25, H 2.24, I 2.05, K 2.17
I10: C 3.13, Q 2.81, P 3.14, G 2.53
K12: W 2.34, R 2.67, P 4.03, N 3.25, Y 3.49, E 4.58

Source: the supplement of paper PMC10567573
